{"source": "paper PMC6056074", "target": "HLA-B*44:05 (human)", "assay": "flow cytometry on cells; peptide receptivity of surface HLA-B on TAP-sufficient CEM cells: 100 μM peptide in medium at 26°C for 2h, then 20 μg/ml brefeldin A at 37°C for 2h; W6/32 staining, signal of cells without exogenous HLA-B subtracted; read-out (MFI with peptide - MFI without peptide)/MFI with peptide*100", "data": [{"binder": "EEFGRAFSF", "note": "[… (EF10), B*44:05-restricted epitope]", "values": [{"measurement": "percent of cell surface HLA-B that is peptide receptive", "result": 5, "unit": "%"}]}]}
